Laboratory results reported in the supplement of paper PMC10567573.

B1: NETO1 (parent)
chain: GFSPIIGRFCGQQNPPVIKSSGRF
B2: C10orf62 (parent)
chain: RALEEVEMKLQKNFLTQRENTIAG

Variants of: B1
Assay: protein stability index of a GFP-peptide fusion (GPS, HEK-293T) (PSI 1-6); higher = more stable
Settings: c terminus: a fixed tail appended
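Further: lentivirally expressed fusions sorted by FACS into six bins by GFP to DsRed ratio, PSI derived from sequencing read proportions per bin multiplied by bin number.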

Protein stability index: each site, then its substitutions
P16: A 2.03, D 2.1, Y 2.24, H 2.18, S 2.05, E 2.58, L 1.59, I 1.86, Q 1.69, M 2.16, W 1.32, C 2.02, K 2.03, R 2.32, G 1.85, F 1.85, V 2.26, T 2.23, N 1.73
G22: K 2.54, F 1.82, D 2.06, A 1.87, Q 2.35, W 2.14, Y 2.1, S 2, H 1.59, I 1.73, N 2.2, R 2.19, T 2.11, L 2.81, P 2.15, M 1.65, C 1.97, V 1.63, E 1.63
K19: A 2.27, W 1.78, G 3.23, F 1.69, E 2.27, Q 1.42, M 2.58, D 2.26, P 2.37, H 1.64, I 2.07, L 2.3, C 1.93, T 1.94, Y 1.91, N 1.65, V 1.48, S 2.48, R 1.85
F24: L 3.69, A 2.42, W 1.6, K 3.64, I 2.23, P 2.51, Q 3, Y 2.4, S 3.88, M 1.97, G 3.51, C 2.48, N 2.64, R 2.66, V 2.42, T 2.65, H 2.26, E 2.76, D 2.98
P15: N 2.52, Q 1.96, C 2.19, V 2.14, H 2.01, Y 2.1, G 2.79, R 1.65, F 2.34, I 2.1, L 2.59, D 2.4, M 1.99, K 1.99, T 2.04, W 2.13, A 2.44, S 1.93, E 2.27
N14: D 2.48, G 2.19, Y 1.99, S 2.35, Q 3.08, K 2.04, V 1.24, R 2.12, H 2.18, I 1.92, P 2.21, L 1.66, W 1.87, T 1.67, M 1.8, F 2.26, E 2.38, A 2.25
R23: G 1.67, H 1.76, Q 1.56, T 1.64, A 1.35, L 2.35, W 2.26, V 2.22, M 1.96, D 2.3, C 1.44, E 2.04, P 3.38, S 1.94, I 1.65, Y 2.6, F 1.89, N 2.09, K 2.44
S20: E 2.11, A 2.67, L 2.59, W 1.99, D 1.55, H 2.16, C 2.18, R 2.44, M 1.66, T 1.88, Y 1.43, G 1.9, K 2.65, F 2.26, V 1.68, I 1.58, N 2.45, Q 2.67, P 2.45
V17: E 2.54, W 2.42, M 2.88, H 2.08, P 2.22, S 2.3, F 1.66, K 2.5, A 2.04, R 2.23, D 2.75, N 2.5, L 1.66, I 2.51, G 2.62, Y 2.12, T 2.05, C 1.62, Q 2.52
S21: M 2.18, A 2.88, P 2.25, V 2.15, C 2.42, Y 2.36, L 1.75, D 1.82, R 2.26, E 2.22, W 1.8, N 2.09, H 2.06, G 2.53, Q 2.08, I 1.57, T 2.36, K 2.22, F 1.68
I18: Y 2.43, F 1.95, Q 2.78, P 2.92, T 2.15, R 3.13, E 2.61, K 2.72, N 3.43, W 2.1, D 2.73, A 2.7, V 3.01, L 2.17, G 2.24, M 2.17, C 2.65, H 1.76, S 2.65
Q12: T 2.26, V 2.15, R 1.78, W 1.72, S 2.03, Y 2.01
Q13: E 2.22, T 3.12, V 2.36, Y 2.22, D 1.96, M 2.3, P 2.31, K 1.88, F 1.75, A 1.83, C 1.42, L 2.3, I 2.17, W 1.61, S 1.63, G 1.89, R 2.64, H 1.88, N 2.31

Variants of: B2
Assay: as above
Settings: c terminus: a fixed tail appended

Protein stability index, by site and new letter:
R1: W 3.15, K 3.6, Y 3.29, H 3.69, Q 3.5, C 1.89, G 4.34, S 3.85, I 2.91, F 3.17, P 4.55, D 4.49, T 4.32, L 2.54, V 3.1, M 3.33, N 4.37, A 3.89, E 4.39
E4: R 4, P 4.36, D 3.44, M 2.63, Q 2.89, G 4.05, Y 2.56, I 1.99, T 3.72, A 2.9, N 3.29, K 3.36, C 3.31, H 3.18, S 3.64, L 2.31, V 2.36, F 3.13, W 1.92
V6: E 4.75, F 3.76, D 4.17, G 4.3, A 3.19, C 3.56
A2: E 4.41, Q 4.32, S 3.9, H 3.55, K 3.7, C 3.27, D 4.1, N 3.89, G 4.1, F 2.54, P 4.4, V 2.96, T 3.83, I 2.66, L 2.61, R 3.61, Y 2.98, M 2.6, W 2.29
E5: C 2.21, I 1.93, W 1.85, M 2.23, L 2, G 3.6, H 3.02, V 1.51, P 3.19, T 3.02, Y 2.27, A 2.7, N 3.98, D 3.67, K 3.76, S 3.51, R 3.12, Q 3.22, F 2.11
L3: S 4.05, C 4.02, R 4.09, K 4.33, P 4.26, I 4.17, D 4.8, F 4.04, N 4.91, H 4.34, V 4.27, T 4.12, A 4.17, M 3.86, G 4.31, Y 3.5, W 2.95, E 5.08, Q 4.47
